Publication PMC4256095

Biological target: actin (UniProt P68135)
Experiment: other fluorescence titration

Chain of recombinant human cofilin (P23528 whole entry): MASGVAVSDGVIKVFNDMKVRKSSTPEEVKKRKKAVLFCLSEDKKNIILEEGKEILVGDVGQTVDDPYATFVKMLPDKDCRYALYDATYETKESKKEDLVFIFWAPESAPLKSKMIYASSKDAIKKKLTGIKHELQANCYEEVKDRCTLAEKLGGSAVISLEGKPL

With “recombinant human cofilin (from UniProt P23528 1-166) (natural protein)” as the substance, how does the binding density (νcof) at 3 µM cofilin read?
The binding density (νcof) at 3 µM cofilin was greater than 0.9.
